From publication PMC9820559, “Investigation of the Fuzzy Complex between RSV Nucleoprotein and Phosphoprotein to Optimize an Inhibition Assay by Fluorescence Polarization” (International Journal of Molecular Sciences, 2022)
Ends that are not written are not given here. Peptide text beside a SMILES is read from it. * marks the point of attachment. dicyano BODIPY FL = CC1=CC(C)=[N+]2C1=Cc1ccc(CCC(=O)*)n1[B-]2(C#N)C#N; FITC = O=C1OC2(c3ccc(O)cc3Oc3cc(O)ccc32)c2ccc(NC(=S)*)cc21; X1 = Cc1cc(C)n2c1C=C1C=CC(CCC(=O)*)=[N+]1[B-]2(C#N)C#N

Assays:
RSV N-RNA complex [1] = target: T1, RSV N-RNA complex (Human respiratory syncytial virus A, UniProt P03418); experiment: Fluorescence polarization inhibition of N-RNA binding to fluorescent probes; settings: probe BCN8E 200 nM
T1 construct: Full-length N was produced by co-expression with the C-terminal domain of RSV P protein in E. coli BL21(DE3); made in house; host or cells: E. coli BL21(DE3), co-transformed with pET-N and pGEX-P(161–241)
Source text: We next performed inhibition experiments for the F11-(N-RNA) complex by M76 (Figure 4B). FP values decreased with increasing competitor concentration. At saturation, FP nearly reached the value of free F11, showing that the F11 peptide could be nearly completely displaced. Since the same concentration range was used for NNTD and N-RNA, poor solubility of M76 can be ruled out to explain the saturation observed before complete displacement of F11 in the presence NNTD (Figure 3C). This reinforces the hypothesis of a second binding site on NNTD, outside the canonical P-binding site. […]
To probe the potency of M76 as an inhibitor, we carried out competition experiments with the M76 molecule and several BCNn peptides. M76 was able to displace the fluorescent probes from N-RNA, and inhibition curves were obtained (Figure 8E). Since we used different N concentrations to have similar dynamic ranges of FP for the series of fluorescent peptides, we cannot directly compare M76 IC50s. However, Kis may be compared.
(§1) Fluorescence polarization measurements were carried out on a Paradigm Detection Platform (Beckman Coulter, Brea, CA, USA) operating with a microplate reader, a fluorescein detection cartridge (excitation range 485/20 nm, emission range 535/25 nm for both parallel and perpendicular components) and the SpectraMax Pro 6.1 software (Molecular Devices, San Jose, CA, USA). Samples were placed in polystyrene black flat bottom 96-well microplates (Cellstar, Greiner bio-one, Frickenhausen, Germany) with 20 µL final volume in each well. If not stated otherwise, the final concentration of fluorescent ligands was 200 nM. The buffer was either 20 mM MES pH 6.5, salt-free or with 250 mM NaCl, or 20 mM Tris pH 8.0 salt-free or with 100 mM NaCl, supplemented with 0.01% Brij-35. Mixing was done using the corresponding plate reader option. The temperature was set to 20 °C. Data were recorded in top reading mode. Measurements were done in triplicate and after an incubation time of 30 min, if not indicated otherwise. Fluorescence polarization (FP) in mFP units was determined from the parallel (I∥) and perpendicular (I⊥) components of the emitted light according to Equation (4). A grating factor G of 1.2 was determined using 1 nM fluorescein in 1 mM NaOH and assuming a theoretical FP of 27 mFP [48]. Background signal was measured from wells containing only buffer, and the mean value was subtracted from each I∥ and I⊥ component. (4) FP (mP)=1000×(I∥−G∗I⊥)/(I∥+G×I⊥)
To assess inhibition of a complex between a fluorescent probe and N protein by peptides or the M76 molecule, the concentration of N was set to work with an FP range comprised between FPmin and ~80% FPmax. Peptides were added from 1 or 2 mM stock solution in water at neutral pH. M76 was added from 10 or 20 mM stock solutions in ethanol or in DMSO. […] Inhibition data were fitted with Origin 7, and in parallel with the Excel solver module. All data were compatible with an absence of cooperativity. FPmax and FPmin were fitted, and the maximal inhibition %i,max was set to 100%. (11) %i=100×[1−(FP−FPmin)/(FPmax−FPmin)] (12) %i=%i,max×[inhibitor]/[inhibitor]+IC50
Inhibition constants Ki were calculated on the IC50-to-Ki converter for a protein-ligand-inhibitor system (https://bioinfo-abcc.ncifcrf.gov/IC50_Ki_Converter/index.php, accessed on 24 August 2022), assuming a competitive mechanism (Equation (13)). This tool takes into account the free concentrations of protein and ligand. (13) Ki=(IC50−[protein]/2)/([peptide]/Kd+1)

RSV N-RNA complex [2] = target: T1, RSV N-RNA complex; experiment: biochemical; type: binding
Description: We carried out FP measurements using the fluorescent F11 peptide and N-RNA complex. […] No salt was added to promote high affinity.
We first measured binding of Fn peptides (200 nM) to N-RNA in Tris buffer by FP (Figure 5A,B). […] We fitted the data with ΔFPmax and Kd as parameters.
We therefore measured fluorescein FP in the presence of N-RNA. […] To test if fluorescein binds to the P-binding site on the N-RNA, we carried out a competition experiment with M76 (Figure 6C).
We first performed FP measurements in salt-free Tris pH 8 buffer (Figure 8A). We measured binding curves using 200 nM of fluorescent peptides.
as §1
We assumed that the measured fluorescence polarization FP is a linear combination of the FP of the fluorescent probe in the absence of N protein (FPmin) and the FP of N-bound fluorescent probe (FPmax), weighted by the molar fraction. The molar fraction x = [P]bound/[P]0 can then be expressed as a ratio of FP differences (Equation (8)). (8) x=(FP−FPmin)/(FPmax−FPmin)=∆FP/∆FPmax
To determine the Kd value of a complex between a fluorescent probe and N protein, a series of samples with constant probe concentration and varying N concentration was measured. FP binding curves were fitted with a single binding site model and a 1:1 stoichiometry.

[3] = target: T2, RSV N-RNA complex (full-length N protein in ring-shaped complexes with bacterial RNA) (human respiratory syncytial virus, UniProt P03418 1-391); experiment: fluorescence polarisation; competition: unlabeled P_(10EE) varied against 200 nM BCN_(10EE) on 1 µM N-RNA; Tris pH 8 buffer; Hill equation; Ki from the IC50-to-Ki server; settings: both partners purified
T2 construct: human RSV nucleoprotein N, full length; concentrations are of N protomer; also called N-RNA rings; source: in lysate for the co-purification; purified (glutathione-Sepharose, thrombin, Superdex 200) as N-RNA complex; copies: 10-11
T2 sequence (looked up): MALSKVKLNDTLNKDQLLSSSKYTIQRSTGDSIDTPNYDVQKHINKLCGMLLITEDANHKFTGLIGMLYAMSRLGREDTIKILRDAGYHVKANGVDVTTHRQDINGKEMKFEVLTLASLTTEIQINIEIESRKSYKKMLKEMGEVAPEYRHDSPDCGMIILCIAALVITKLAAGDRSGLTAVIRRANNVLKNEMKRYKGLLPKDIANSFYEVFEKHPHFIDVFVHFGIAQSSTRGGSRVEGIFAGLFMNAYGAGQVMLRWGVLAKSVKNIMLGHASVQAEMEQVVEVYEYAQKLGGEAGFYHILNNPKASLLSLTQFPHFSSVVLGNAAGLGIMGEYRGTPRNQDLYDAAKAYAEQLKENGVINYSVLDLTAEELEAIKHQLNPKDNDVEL

[4] = target: T2, RSV N-RNA complex (full-length N …); experiment: fluorescence polarisation; 200 nM dicyano BODIPY FL-labelled BCNn peptide, N-RNA varied; 20 mM Tris pH 8.0 without salt, 0.01% Brij-35; 20 °C; single site model; settings: both partners purified
[5] = target: T2, RSV N-RNA complex (full-length N …); experiment: fluorescence polarisation; 200 nM dicyano BODIPY FL-labelled BCNn peptide, N-RNA varied; 20 mM Tris pH 8.0 with 100 mM NaCl, 0.01% Brij-35; 20 °C; single site model; settings: both partners purified
[6] = target: T2, RSV N-RNA complex (full-length N …); experiment: fluorescence polarisation; 200 nM FTU-labelled Fn peptide, N-RNA varied (up to 40 µM N); 20 mM Tris pH 8.0 without salt, 0.01% Brij-35; 20 °C; 30 min incubation; single site model, or with a linear contribution where marked (*); settings: both partners purified
[7] = target: T2, RSV N-RNA complex (full-length N …); experiment: fluorescence polarisation; competition: unlabeled P peptide varied against 200 nM F11 on 10 µM N-RNA; Tris pH 8 without salt; Hill equation; Ki from the IC50-to-Ki server; settings: both partners purified
[8] = BCNn peptides 200 nM, Tris pH 8.0, no salt, single site model

Cc1cc(C)n2c1C=C1C=CC(CCC(=O)N[C@@H](CC(N)=O)C(=O)N[C@@H](CC(=O)O)C(=O)N[C@@H](CC(C)C)C(=O)N[C@@H](CCC(=O)O)C(=O)N[C@@H](CC(C)C)C(=O)N[C@@H](CCC(=O)O)C(=O)N[C@@H](CC(=O)O)C(=O)N[C@@H](Cc3ccccc3)C(=O)O)=[N+]1[B-]2(C#N)C#N [BCN8E] (X1-NDLELEDF-OH)
Fitted FPmax (RSV N-RNA complex [1]; inhibitor M76, [N-RNA] 2 µM): 166 mFP
Fitted FPmax (RSV N-RNA complex [1]; inhibitor M76, [N-RNA] 5 µM): 196 mFP
decrease of affinity in salty buffer versus salt-free buffer (RSV N-RNA complex [2]; 100 mM NaCl vs no salt, Tris pH 8): 5 fold
Kd (RSV N-RNA complex [2]; [8]): 1400 nM
ΔFPmax (RSV N-RNA complex [2]; [8]): 298 ± 5 mFP
ΔFPmax (RSV N-RNA complex [2]; BCNn peptides 200 nM, Tris pH 8.0, with salt (100 mM NaCl), (*) saturation not reached): 284 ± 15 (*) mFP

B1: P_(10EE) (unlabeled RSV P 10-mer, Ser232Glu/Ser237Glu) (peptide)
peptide: EDNDLELEDF
notes: unlabeled equivalent of BCN_(10EE), which was made from P_(10EE) on resin; C-terminal 10 residues of RSV phosphoprotein P; source: synthetic peptide
IC50 [3]: 21 ± 4 µM
Ki [3]: 2900 nM

B2: BCN9E (dicyano BODIPY FL-labelled RSV P 9-mer, Ser237Glu) (peptide)
peptide: {dicyano BODIPY FL}-DNDLELEDF
notes: C-terminal 9 residues of RSV phosphoprotein P with a phosphomimetic glutamate at 237; also called B9E; source: synthetic peptide (Fmoc/tBu solid phase, dicyano BODIPY FL coupled on resin, RP-HPLC purified)
Kd [4]: 960 ± 130 nM

B3: BCN8E (dicyano BODIPY FL-labelled RSV P 8-mer, Ser237Glu) (peptide)
peptide: {dicyano BODIPY FL}-NDLELEDF
notes: C-terminal 8 residues of RSV phosphoprotein P with a phosphomimetic glutamate at 237; also called B8E; source: synthetic peptide (Fmoc/tBu solid phase, dicyano BODIPY FL coupled on resin, RP-HPLC purified)
Kd [5]: 7.1 ± 0.1 µM
Kd [4]: 1430 ± 80 nM

B4: BCN_(11SE) (dicyano BODIPY FL-labelled RSV P 11-mer, Ser237Glu) (peptide)
peptide: {dicyano BODIPY FL}-DSDNDLELEDF
notes: C-terminal 11 residues of RSV phosphoprotein P with a phosphomimetic glutamate at 237; source: synthetic peptide (Fmoc/tBu solid phase, dicyano BODIPY FL coupled on resin, RP-HPLC purified)
Kd [5]: 0.55 ± 0.07 µM
Kd [4]: 820 ± 220 nM

B5: F_(11SE) (FTU-labelled RSV P 11-mer, Ser237Glu) (peptide)
peptide: {FITC}-DSDNDLELEDF
notes: C-terminal 11 residues of RSV phosphoprotein P with a phosphomimetic glutamate at 237; source: synthetic peptide (Fmoc/tBu solid phase), FITC coupled in solution, HPLC purified
Kd [6]: 870 ± 260 nM

B6: P_(11EE) (unlabeled RSV P 11-mer, Ser232Glu/Ser237Glu) (peptide)
peptide: DEDNDLELEDF
notes: unlabeled peptide from which F_(11EE) was made; C-terminal 11 residues of RSV phosphoprotein P; source: synthetic peptide (Fmoc/tBu solid phase, RP-HPLC purified)
IC50 [7]: 22 ± 4 µM
Ki [7]: 6 µM
